# Publication PMC3085348 (European journal of immunology, 2011)
# T1: RTL340 (DR2/MBP-85-99), biotinylated version (human, DRA*01:01/DRB1*15:01, biotin on the Bir-A tag)
# T1 chain 1: ENPVVHFFKNIVTPR
# T1 chain 2: not shown
# T1 chain 3: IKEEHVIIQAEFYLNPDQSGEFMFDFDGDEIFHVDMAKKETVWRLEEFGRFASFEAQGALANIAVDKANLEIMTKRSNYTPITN
# What was measured:
# [1] = target: RTL342m (α1β1 domains of DR2 linked to mouse MOG-35-55 peptide) (human HLA-DR2 (DRA*01:01/DRB1*15:01) …, UniProt Q61885;IMGT); experiment: ELISA
# [2] = target: T1, RTL340 (DR2/MBP-85-99), biotinylated …; experiment: ELISA
Binder,fold reduction in ELISA binding to RTL342m compared to RTL1000 [1] [fold],binding result [2]
"Fab 1F11 (Fab, V domains shown) VH: QLQLQESGPGLVKPSETLSLTCTVSGVSISSRSGHWGWVRQPPGKGLEWIGSISYSGSTYYNPSLKSRVTISVDTSKNQLSLKLSSVTAADTAVYYCARESHPAAALVGWGQGTLVTVSS VL: ETTLTQSPGTLSLSPGERATLSCRASQSIINSHLAWYQQKPGQAPRLLIYGASSRATGIPDRFSGGGSGTDFTLTITRLETEDFALYFCQQYGTSPLTFGGGTRVETK",5,–
"Fab 2C3 (Fab, V domains shown) VH: QVQLVQSGGGVVQPGRSLRLSCAASGFTFSSYAMHWVRQAPGKGLEWVAVISYDGSNKYYADSVKGRFTISRDNSKNTLYLQMNSLRAEDTAVYYCARDRSFWSGYYIINYYYYGMDVWGQGTTVTVSS VL: DVVMTQSPLSLPVTPGEPASISCRSSQSLLHSDGNNYLDWYLQKPGQSPQLLIYLGSNRASGVPDRFSGSGSGTDFTLKISRVEPEDVGVYYCMQALHIPLTFGQGTRLEIK",–,no binding
"Fab 3A3 (Fab, V domains shown) VH: QVQLQESGGGLVKPGGSLRLSCAASGFTFSSYSMNWVRQAPGKGLEWVSSISSSSSYIYYADSVKGRFTISRDNAKNSLYLQMNSLRAEDTAVYYCARVRGHRYYYDSSGYYSSDYYYYYGMDVWGQGTTVTVSS VL: DIQLTQSPSSVSASVGDRVTITCRASQVISSWLAWYQQKPGKAPKLLISTASSLQSGVPPRFSGSGSGTDFTLTITSLQPEDFATYYCQQANSFPLTFGQGTKVEIK",5,–
"Fab 2E4 (Fab, V domains shown) VH: EVQLVESGAEVKKPGASVKVSCKASGYTFTSYYMHWVRQAPGQGLEWMGIINPSGGSTSYAQKFQGRVTMTRDTSTSTVYMELSSLRSEDTAVYYCAREGDNYYGDAFDIWGQGTMVTVSS VL: EIVLTQSPATLSLSPGERATLSCRASQSVSSYLAWYQQKPGQAPRLLIYDASNRATGIPARFSGSGSGTDFTLTISSLEPEDFAVYYCQQRSNWPPSYTFGQGTKLEIK",2,–
